Biological target: T1, C-terminal GFP-tagged ACE2 fusion protein stably expressed on HEK293T cells (ACE2-GFP HEK293T) (UniProt Q9BYF1 18-805)
T1 construct: also called ACE2-GFP HEK293T clone 2; ACE2-GFP HEK293T clone 1
Assay: live-cell confocal imaging of ACE2-GFP HEK293T cells

T1 sequence (Q9BYF1 18-805): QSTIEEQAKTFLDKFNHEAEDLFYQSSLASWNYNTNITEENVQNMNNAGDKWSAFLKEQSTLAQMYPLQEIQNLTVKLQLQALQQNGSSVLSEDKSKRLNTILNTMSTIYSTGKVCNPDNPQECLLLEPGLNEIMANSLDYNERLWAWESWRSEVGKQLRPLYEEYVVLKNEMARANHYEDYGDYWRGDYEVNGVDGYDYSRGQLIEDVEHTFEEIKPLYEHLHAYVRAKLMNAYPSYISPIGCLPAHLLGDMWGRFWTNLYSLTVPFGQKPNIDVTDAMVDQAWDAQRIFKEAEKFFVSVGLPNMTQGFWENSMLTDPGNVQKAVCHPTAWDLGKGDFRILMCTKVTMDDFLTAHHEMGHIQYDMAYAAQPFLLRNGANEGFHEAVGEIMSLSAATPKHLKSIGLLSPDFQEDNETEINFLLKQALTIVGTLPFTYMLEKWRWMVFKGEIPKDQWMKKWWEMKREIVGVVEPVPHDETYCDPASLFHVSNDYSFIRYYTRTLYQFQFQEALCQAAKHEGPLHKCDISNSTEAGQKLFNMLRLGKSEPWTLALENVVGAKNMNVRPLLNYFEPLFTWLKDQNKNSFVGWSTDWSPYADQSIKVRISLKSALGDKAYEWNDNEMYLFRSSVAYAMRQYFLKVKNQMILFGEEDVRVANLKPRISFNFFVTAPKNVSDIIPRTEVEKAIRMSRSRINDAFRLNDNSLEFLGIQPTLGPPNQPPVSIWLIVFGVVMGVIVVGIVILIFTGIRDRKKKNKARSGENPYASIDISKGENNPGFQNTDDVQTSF

B1: SARS-CoV [change] (40150-V08B1) (ligand)
chain: not shown
binding result: binds

Source: patent US20220034884A1 (GOVERNMENT OF THE UNITED STATES OF AMERICA AS REPRESENTED …, published 2022)
